Test results as given in article PMC4715444, “A simple and rapid method for measuring α-D-phosphohexomutases activity by using anion-exchange chromatography coupled with an electrochemical detector” (PeerJ, 2016).

Substrate: O=P(O)(O)O[C@H]1O[C@H](CO)[C@@H](O)[C@H](O)[C@H]1O
Assay: HPAEC-PAD, direct detection of hexose phosphates
Type: biochemical, Arabidopsis thaliana
Conditions: 20 mM PBS pH 7.0, 10 mM MgSO4, 20 µM glucose-1,6-bisphosphate, 30 °C
Text: HPAEC-PAD, direct detection of hexose phosphates on AtAGM

B1: AtAGM (Arabidopsis thaliana) (protein)
chain: MDEIQIASILKSSELFPIPQGVKLSYGTAGFRGDAKLLESTVYRVGILSALRSLKLGSATVGLMITASHNKVSDNGIKVSDPSGFMLSQEWEPFADQIANASSPEELVSLIRKFMEKEEIAIGENNKGAEVWLGRDTRPSGESLLRAGEIGVGSILGSVAIDIGILTTPQLHWMVRAKNKGLKATENDYFENLSTSFRCLIDLIPSSGNDKLEISKLLVDGANGVGGQKIEKLRGSLSNLDVEIRNTGRDGGVLNEGVGADFVQKEKVLPVGFGFKDVGMRCASLDGDADRLVYFYIPSDSSEKVELLDGDKILSLFALFIKEQLNALEDDEERKQSRLGVVQTAYANGASTDYLKHLGLDVVFAKTGVKHLHEKAAEFDIGIYFEANGHGTILFSESFLSWLVSKQKDLTAKGQGGSEEHKAVSRLMAVSNLINQAVGDALSGVLLVEVILQHLGWSIEKWNELYKDLPSRQIKVEVPDRTAVVTTSEETEALRPMGIQDAINSEIKKYSRGRAFIRPSGTEDVVRVYAEASTQEDADSLANSVAQLVKSFLGSS
- Km: 679.18 ± 156.40 µM
- Vmax: 0.137 µmol/min
- kcat: 40.4 s⁻¹
